Laboratory results from patent publication US20190322765A1 (Hoffmann-La Roche, published 2019).
Changes are numbered by the printed parent chain. Names and notes keep the numbering of the source. Values joined by “and” are separate entries in the source; they are usually repeats but may differ in a detail not shown here. Identical values can stand only once.

B1: 4B9 Fab-IL-2 qm-Fab (other)
chain: EVQLLESGGGLVQPGGSLRLSCAASGFTFSSYAMSWVRQAPGKGLEWVSAIIGSGASTYYADSVKGRFTISRDNSKNTLYLQMNSLRAEDTAVYYCAKGWFGGFNYWGQGTLVTVSSASTKGPSVFPLAPSSKSTSGGTAALGCLVKDYFPEPVTVSWNSGALTSGVHTFPAVLQSSGLYSLSSVVTVPSSSLGTQTYICNVNHKPSNTKVDKKVEPKSCDSGGGGSGGGGSGGGGAPASSSTKKTQLQLEHLLLDLQMILNGINNYKNPKLTRMLTAKFAMPKKATELKHLQCLEEELKPLEEVLNGAQSKNFHLRPRDLISNINVIVLELKGSETTFMCEYADETATIVEFLNRWITFAQSIISTLTSGGGGSGGGGSGGGGEVQLLESGGGLVQPGGSLRLSCAASGFTFSSYAMSWVRQAPGKGLEWVSAIIGSGASTYYADSVKGRFTISRDNSKNTLYLQMNSLRAEDTAVYYCAKGWFGGFNYWGQGTLVTVSSASTKGPSVFPLAPSSKSTSGGTAALGCLVKDYFPEPVTVSWNSGALTSGVHTFPAVLQSSGLYSLSSVVTVPSSSLGTQTYICNVNHKPSNTKVDKKVEPKSCD
light: EIVLTQSPGTLSLSPGERATLSCRASQSVTSSYLAWYQQKPGQAPRLLINVGSRRATGIPDRFSGSGSGTDFTLTISRLEPEDFAVYYCQQGIMLPPTFGQGTKVEIKRTVAAPSVFIFPPSDEQLKSGTASVVCLLNNFYPREAKVQWKVDNALQSGNSQESVTEQDSKDSTYSLSSTLTLSKADYEKHKVYACEVTHQGLSSPVTKSFNRGEC
notes: Fab-IL-2-Fab immunoconjugate against FAP with quadruple mutant IL-2
B2: 14B3 Fab-IL-2 qm-Fab (other)
chain: B1 chain with I52L, G53A, S57I, I436L, G437A, S441I
light: B1 light
notes: as for B1
B3: human IL-2R α-subunit, monomeric, with AcTev cleavage site and Avi His tag (receptor)
chain: ELCDDDPPEIPHATFKAMAYKEGTMLNCECKRGFRRIKSGSLYMLCTGNSSHSSWDNQCQCTSSATRNTTKQVTPQPEEQKERKTTEMQSPMQPVDQASLPGHCREPPPWENEATERIYHFVVGQMVYYQCVQGYRALHRGPAESVCKMTHGKTRWTQPQLICTGVDEQLYFQGGSGLNDIFEAQKIEWHEARAHHHHHH
notes: also called Hu IL-2R α; CD25
B4: 3F2 Fab (Fab, V domains shown)
VH: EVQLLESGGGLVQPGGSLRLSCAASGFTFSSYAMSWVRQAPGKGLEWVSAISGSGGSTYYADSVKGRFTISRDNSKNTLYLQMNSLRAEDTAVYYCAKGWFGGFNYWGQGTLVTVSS
VL: EIVLTQSPGTLSLSPGERATLSCRASQSVTSSYLAWYQQKPGQAPRLLINVGSRRATGIPDRFSGSGSGTDFTLTISRLEPEDFAVYYCQQGIMLPPTFGQGTKVEIKR
B5: 4G8 Fab (Fab, V domains shown)
VH: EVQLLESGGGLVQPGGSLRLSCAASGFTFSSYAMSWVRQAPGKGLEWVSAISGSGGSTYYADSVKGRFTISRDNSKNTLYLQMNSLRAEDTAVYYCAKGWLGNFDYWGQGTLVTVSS
VL: B4 VL with T30S, S31R, N50I, V51G, G52A, R54T, I93Q, M94V, L95I
B6: 28H1 Fab (Fab, V domains shown)
VH: EVQLLESGGGLVQPGGSLRLSCAASGFTFSSHAMSWVRQAPGKGLEWVSAIWASGEQYYADSVKGRFTISRDNSKNTLYLQMNSLRAEDTAVYYCAKGWLGNFDYWGQGTLVTVSS
VL: B4 VL with T30S, S31R, N50I, V51G, G52A, R54T, I93Q, M94V, L95I
notes: Cleaved Fab fragment
B7: Naked IL-2 qm (quadruple mutant T3A/F42A/Y45A/L72G, His-tagged) (ligand)
chain: APASSSTKKTQLQLEHLLLDLQMILNGINNYKNPKLTRMLTAKFAMPKKATELKHLQCLEEELKPLEEVLNGAQSKNFHLRPRDLISNINVIVLELKGSETTFMCEYADETATIVEFLNRWITFAQSIISTLTVDHHHHHH
notes: also called naked IL-2 quadruple mutant; quadruple mutant IL-2
B8: 4B9 Fab (Fab, V domains shown)
VH: EVQLLESGGGLVQPGGSLRLSCAASGFTFSSYAMSWVRQAPGKGLEWVSAIIGSGASTYYADSVKGRFTISRDNSKNTLYLQMNSLRAEDTAVYYCAKGWFGGFNYWGQGTLVTVSS
VL: EIVLTQSPGTLSLSPGERATLSCRASQSVTSSYLAWYQQKPGQAPRLLINVGSRRATGIPDRFSGSGSGTDFTLTISRLEPEDFAVYYCQQGIMLPPTFGQGTKVEIK
B9: 14B3 Fab (Fab, V domains shown)
VH: B8 VH with I52L, G53A, S57I
VL: B4 VL
notes: Cleaved Fab fragment
B10: 4G8 IgG (antibody, V domains shown)
VH: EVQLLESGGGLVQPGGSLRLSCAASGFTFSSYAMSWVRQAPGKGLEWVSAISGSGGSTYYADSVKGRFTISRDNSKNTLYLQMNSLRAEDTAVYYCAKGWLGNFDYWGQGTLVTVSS
VL: B8 VL with T30S, S31R, N50I, V51G, G52A, R54T, I93Q, M94V, L95I
B11: 28H1 IgG (antibody, V domains shown)
VH: B6 VH
VL: B8 VL with T30S, S31R, N50I, V51G, G52A, R54T, I93Q, M94V, L95I
notes: also called unmodified 28H1 IgG antibody
B12: 29B11 Fab (Fab, V domains shown)
VH: B8 VH with A56G, S57I
VL: B4 VL
notes: Cleaved Fab fragment

Experiments:
[1] = target: T1, human FAP expressed on stably transfected HEK293 cells (human, UniProt Q12884 1-760); assay: FACS on HEK 293-human FAP cells, median fluorescence against concentration
T1 construct: whole, on cells
Method: Briefly, 250 000 cells per well were incubated with the indicated concentration of the immunoconjugates in a round-bottom 96-well plate, incubated for 30 min at 4° C., and washed once with PBS/0.1% BSA.

[2] = target: T2, human DPPIV on transfected HEK 293 cells (human, UniProt P27487 1-766); assay: FACS on HEK 293-human DPPIV cells, with HEK mock-transfected cells, cells only and sec. antibody as controls; concentration not shown
T2 construct: whole, on cells; also called CD26

[3] = target: FAP on GM05389 fibroblasts; assay: FACS on GM05389 fibroblasts, surface-bound construct detected with secondary antibody after the times shown (internalization analysis); concentration not shown
[4] = target: T3, Proleukin (Novartis/Chiron), commercially available wild-type IL-2 (UniProt P60568 22-153); assay: SPR, receptor on CM5, IL-2 analyte, 25°C, steady state
Method: (§1) Subsequently, affinity for the IL-2R βγ heterodimer and the IL-2R α-subunit were determined by surface plasmon resonance (SPR). Briefly, the ligand—either human IL-2R α-subunit (Fc2) or human IL2-R β knob γ hole heterodimer (Fc3)—was immobilized on a CM5 chip. […] Flow rate was 30 l/min and the following conditions were applied for association: 180s, dissociation: 300 s, and regeneration: 2×30 s 3M MgCl₂ for IL2-R β knob γ hole heterodimer, 10 s 50 mM NaOH for IL-2R α-subunit.

[5] = target: T3, Proleukin (Novartis/Chiron), …; assay: SPR, receptor on CM5, IL-2 analyte, 25°C, kinetic
Method: as §1

cynomolgus FAP-His [6] = target: cynomolgus FAP-His (cynomolgus); assay: SPR, FAP-His captured via anti-His, Fab analyte, 1:1 fit, 25°C
Method: The FAP binding activity of the cleaved Fab fragments used in these examples as antigen binding, moieties was determined by surface plasmon resonance (SPR) on a Biacore machine. […] Temperature was 25° C. and HBS-EP was used as buffer. […] Fitting was performed based on a 1:1 binding model, RI=0, Rmax=local (because of capture format).

murine FAP-His = target: T4, murine FAP-His (murine, UniProt P97321 27-761); assay: as above
T4 construct: not shown: His tag

human FAP-His [7] = target: T5, human FAP-His (human, UniProt Q12884 27-760); assay: as above
T5 construct: also called Hu FAP; His-tagged human FAP; not shown: His tag

cynomolgus FAP-His [8] = target: cynomolgus FAP-His (cynomolgus); assay: SPR, FAP-His captured via anti-His, Fab analyte, steady state, 25°C
human FAP-His [9] = target: T5, human FAP-His; assay: as above
[10] = target: B3; assay: SPR, receptor on CM5, kinetic
[11] = target: T6, human IL-2R βγ heterodimer, subunit-Fc knobs-into-holes fusion (human); assay: SPR, receptor on CM5, IL-2 analyte, 25°C, kinetic
T6 construct: The entries may hold a leader peptide; also called Hu IL-2R βγ; human IL2-R β knob γ hole heterodimer
Method: as §1

human FAP-His [12] = target: T5, human FAP-His; assay: SPR, His-tagged human FAP captured via anti-His, apparent bivalent affinity (avidity), 25°C
Method: Temperature was 25° C. and HBS-EP was used as buffer. Analyte concentration was 50 nM down to 0.05 nM at a flow rate of 50 μl/min (association: 300 s, dissociation: 900 s, regeneration: 60 s, with 10 mM glycine pH 2). Fitting was performed based on a 1:1 binding model, RI=0, Rmax=local (because of capture format).

Kd (cynomolgus FAP-His [6])	Kd (murine FAP-His)	Kd (human FAP-His [7])	Binder	further results
			B1	binding result [1]: binds; binding result [2]: no binding; binding result [3]: binds
			B2	EC50 (read off the curve) [1]: ~20 nM; binding result [2]: no binding; binding result [3]: binds
			B3	Kd [4]: 19 nM and 17.8 nM; Kd [5]: 7.5 nM and 12.5 nM
4.7 nM and 5.3 nM	8.9 nM and 9.5 nM	6 nM	B4	
33 nM and 35 nM	0.07 nM	53 nM and 51 nM	B5	Kd (cynomolgus FAP-His [8]): 33 nM and 34 nM; Kd (human FAP-His [9]): 48 nM
	0.13 nM and 0.18 nM	2.6 nM	B6	
			B7	binding result [10]: no binding (tested: 300 nM); Kd [11]: 2.7 nM and 2 nM
0.23 nM and 0.24 nM	5 nM and 5.2 nM	0.3 nM and 0.31 nM	B8	
0.59 nM and 0.61 nM	4.7 nM	0.47 nM	B9	
			B10	Kd (human FAP-His [12]): 0.05 nM
			B11	Kd (human FAP-His [12]): 0.2 nM
0.21 nM and 0.2 nM	1.3 nM and 1.2 nM	0.19 nM	B12	
